# Measured values as given in US20090181894A1.
# Molecular target: GnRH binding sites on neoplastic cells (plasma membranes of the SW-48 colon adenocarcinoma cell line in the binding assay)
# Assay: binding of 125I-GnRH to plasma membranes of SW-48 cells, filter assay
substance,measurement,value
125I-GnRH (from UniProt P01148) (peptide),non-specific binding,37%
